Results on 12 molecules are retold here after patent US20250340857A1 (SEISMIC THERAPEUTIC, published 2025).

Where a chain is given by its changes, count along the chain named.

Sequences and labels used below:
B1: FP17 (Fc fusion)
chain: DKTHTCPPCPAPEAAGAPSVFLFPPKPKDTLMISRTPEVTCVVVDVSHEDPEVKFNWYVDGVEVHNAKTKPREEQQNSTYRVVSVLTVLHQDWLNGKEYKCKVSNKALKAPIEKTISKAKGQPREPQVYTLPPSRDELTKNQVSLTCLVKGFYPSDIAVEWESNGQPENNYKTTPPVLDSDGSFFLYSKLTVDKSRWQQGNVFSCSVMHEALHNHYTQKSLSLSPGGGGSGGGGSGGGGSGGGGSGGGGSGGGGSTALGRRKAEDRIKETLWADGVKIDEKDFEHIKSSHEDYFAVEYGKGSGYYDVNKKMDSEDTALCVGAVVTNMFHWWVDQNRENIEKFKKQDPENNGVMKFNGVKEATVDELNHFYKEYQSNKYADQSRFFDLIKKHFGNKALNPEELFELYFNGFYYGSSHRYIEDNKPAQNNLFSKVLENNKLLNPERSYGIDGFSNNVINALKSHKVLGLVHTTPLRYRHIISMWGADIDQDGKVKAIYVTDSDDREITFNDNSKRRIGMIRYDVLVDDNGNIRFTGKGATHKEEGAIYAGLYSLSRGDEVWEDYFKKYPEVQENL
B2: FP11 (Fc fusion)
chain: DKTHTCPPCPAPEAAGAPSVFLFPPKPKDTLMISRTPEVTCVVVDVSHEDPEVKFNWYVDGVEVHNAKTKPREEQQNSTYRVVSVLTVLHQDWLNGKEYKCKVSNKALKAPIEKTISKAKGQPREPQVYTLPPSRDELTKNQVSLTCLVKGFYPSDIAVEWESNGQPENNYKTTPPVLDSDGSFFLYSKLTVDKSRWQQGNVFSCSVMHEALHNHYTQKSLSLSPGGGGSGGGGSGGGGSTALGRRKAEDRIKETLWADGVKIDEKDFEHIKSSHEDYFAVEYGKGSGYYDVNKKMDSEDTALCVGAVVTNMFHWWVDQNRENIEKFKKQDPENNGVMKFEGVKEATVDELNHFYRDNRDNYADQSRFFDLIKKHFGNKALNPEELFELYFNGFYYGSSHRYIEDNEPAQNNLFSKVLENNKLLNPERSYGIDGFSNNVINALKSHKVLGLVHTTPLRYRHIISMWGADIDQDGKVKAIYVTDSDDREITFNDNSKRRIGMIRYDVLVDDNGNIRFTGKGATHKEEGAIYAGLYSLSRGDEVWEDYFKKYPEVQENL
B3: FP12 (Fc fusion)
chain: B2 chain with H453Y
B4: FP121 (Fc fusion)
chain: B2 chain with H353E, H453Y
B5: FP15 (Fc fusion)
chain: B2 chain with T301S, R458T
B6: FP14 (Fc fusion)
chain: B2 chain with H453Y, R458T
B7: FP134 (Fc fusion)
chain: DKTHTCPPCPAPEAAGAPSVFLFPPKPKDTLMISRTPEVTCVVVDVSHEDPEVKFNWYVDGVEVHNAKTKPREEQQNSTYRVVSVLTVLHQDWLNGKEYKCKVSNKALKAPIEKTISKAKGQPREPQVYTLPPSRDELTKNQVSLTCLVKGFYPSDIAVEWESNGQPENNYKTTPPVLDSDGSFFLYSKLTVDKSRWQQGNVFSCSVMHEALHNHYTQKSLSLSPGGGGSKGGGSKGGGSKTALGRRKAEDRIKETLWADGVKIDEKDFEHIKSSHEDYFAVEYGKGSGYYDVNKKMDSEDTALCVGAVVTNMFHWWVDQNRENIEKFKKQDPENNGVMKFEGVKEATVDELNEFYRDNRDNYADQSRFFDLIKKHFGNKALNPEELFELYFNGFYYGSSHRYIEDNEPAQNNLFSKVLENNKLLNPERSYGIDGFSNNVINALKSHKVLGLVYTTPLRYRHIISMWGADIDQDGKVKAIYVTDSDDREITFNDNSKRRIGMIRYDVLVDDNGNIRFTGKGATHKEEGAIYAGLYSLSRGDEVWEDYFKKYPEVQENL
B8: FP2 (Fc fusion)
chain: DKTHTCPPCPAPEAAGAPSVFLFPPKPKDTLMISRTPEVTCVVVDVSHEDPEVKFNWYVDGVEVHNAKTKPREEQQNSTYRVVSVLTVLHQDWLNGKEYKCKVSNKALKAPIEKTISKAKGQPREPQVYTLPPSRDELTKNQVSLTCLVKGFYPSDIAVEWESNGQPENNYKTTPPVLDSDGSFFLYSKLTVDKSRWQQGNVFSCSVMHEALHNHYTQKSLSLSPGGGGSGGGGSGGGGSTALGRRKAEDRIKETLWADGVKIDEKDFEHIKSSHEDYFAVEYGKGSGYYDVNKKMDSEDTALCVGAVVTNMFHWWVDQNRENIEKFKKQDPENNGVMKFNGVKEATVDELNHFYKEYQSNKYADQSRFFDLIKKHFGNKALNPEELFELYFNGFYYNSSHRYIEDNKPAQNNLFSKVLENNKLLNPERSYGIDGFSNNVINALKSHKVLGLVHTTPLRYRHIISMWGADIDQDGKVKAIYVTDSDDREITFNDNSKRRIGMIRYDVLVDDNGNIRFTGKGATHKEEGAIYAGLYSLSRGDEVWEDYFKKYPEVQENL
B9: FP3 (Fc fusion)
chain: B8 chain with N398Q
B10: FP6 (Fc fusion)
chain: B8 chain with N341E, N398Q, K408E, R459T
B11: FP132 (Fc fusion)
chain: DKTHTCPPCPAPEAAGAPSVFLFPPKPKDTLMISRTPEVTCVVVDVSHEDPEVKFNWYVDGVEVHNAKTKPREEQQNSTYRVVSVLTVLHQDWLNGKEYKCKVSNKALKAPIEKTISKAKGQPREPQVYTLPPSRDELTKNQVSLTCLVKGFYPSDIAVEWESNGQPENNYKTTPPVLDSDGSFFLYSKLTVDKSRWQQGNVFSCSVMHEALHNHYTQKSLSLSPGGGGGSGGGGSTALGRRKAEDRIKETLWADGVKIDEKDFEHIKSSHEDYFAVEYGKGSGYYDVNKKMDSEDTALCVGAVVTNMFHWWVDQNRENIEKFKKQDPENNGVMKFEGVKEATVDELNEFYRDNRDNYADQSRFFDLIKKHFGNKALNPEELFELYFNGFYYGSSHRYIEDNEPAQNNLFSKVLENNKLLNPERSYGIDGFSNNVINALKSHKVLGLVYTTPLRYRHIISMWGADIDQDGKVKAIYVTDSDDREITFNDNSKRRIGMIRYDVLVDDNGNIRFTGKGATHKEEGAIYAGLYSLSRGDEVWEDYFKKYPEVQENL
B12: FP133 (Fc fusion)
chain: B11 chain with G230S, S231K, G235S, S236K

The target of the test is Human IgE antibody (human). Kind of test: cell-based or functional assay.
For the molecule B1, the “EC50 CE-SDS IgE” value turned out to be 56.3 nM.
The same measure, in the same setting: in the case of B2 it was 68.5 nM.
Turning to B3, the “EC50 CE-SDS IgE” value came out at 43.3 nM and the “EC50 MSD IgE” value was found to be 0.753 nM.
For B4, in that order: 1.22 nM and 1.25 nM.
For the molecule B5, the “EC50 CE-SDS IgE” value stood at 54.7 nM.
For B6, the “EC50 CE-SDS IgE” value stood at 31.9 nM.
The same measure, in the same setting: the result for B7 reads 2.36 nM.
As for B8, the “EC50 CE-SDS IgE” value was 212 nM and the “EC50 MSD IgE” value was determined as 140 nM.
For the molecule B9, the “EC50 CE-SDS IgE” value came out at 71.5 nM and the “EC50 MSD IgE” value stood at 114 nM.
On to B10, for which the “EC50 MSD IgE” value was found to be 99.4 nM.
B11: the “EC50 CE-SDS IgE” value was 1.27 nM.
On the same count and under the same terms, the result for B12 reads 1.15 nM.
